Literature values, collected in patent publication US12246031B2, “Compositions and methods for tumor immunotherapy” (CHECKMATE PHARMACEUTICALS, INC., priority 2018, dated 2025).
pKd: −log10 of the molar value.

Target: PD-L1 (Homo sapiens, UniProt Q9NZQ7)
Conditions: anti-PD-L1 antibody in clinical development

Sequence of PD-L1 (Q9NZQ7 19-290): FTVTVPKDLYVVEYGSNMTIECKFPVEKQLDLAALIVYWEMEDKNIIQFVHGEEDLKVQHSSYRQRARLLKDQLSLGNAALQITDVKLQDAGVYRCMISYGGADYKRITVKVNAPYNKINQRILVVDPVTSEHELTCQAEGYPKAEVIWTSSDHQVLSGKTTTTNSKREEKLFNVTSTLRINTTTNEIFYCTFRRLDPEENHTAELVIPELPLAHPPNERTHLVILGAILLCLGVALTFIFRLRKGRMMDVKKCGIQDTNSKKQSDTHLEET

Substance: MPDL3280A: anti-PD-L1 antibody under development in human clinical trials (Genetech/Roche)
- pKd: 9.40
